# B1: E3 ubiquitin-protein ligase CHIP (Homo sapiens), Q9UNE7-1 (parent)
# chain: MKGKEEKEGGARLGAGGGSPEKSPSAQELKEQGNRLFVGRKYPEAAACYGRAITRNPLVAVYYTNRALCYLKMQQHEQALADCRRALELDGQSVKAHFFLGQCQLEMESYDEAIANLQRAYSLAKEQRLNFGDDIPSALRIAKKKRWNSIEERRIHQESELHSYLSRLIAAERERELEECQRNHEGDEDDSHVRAQQACIEAKHDKYMADMDELFSQVDEKRKKRDIPDYLCGKISFELMREPCITPSGITYDRKDIEEHLQRVGHFDPVTRSPLTQEQLIPNLAMKEVIDAFISENGWVEDY
# Variants of: B1
# Conditions: with akt1_human AKT1, P31749
# Sequence of akt1_human AKT1, P31749 (P31749 whole entry): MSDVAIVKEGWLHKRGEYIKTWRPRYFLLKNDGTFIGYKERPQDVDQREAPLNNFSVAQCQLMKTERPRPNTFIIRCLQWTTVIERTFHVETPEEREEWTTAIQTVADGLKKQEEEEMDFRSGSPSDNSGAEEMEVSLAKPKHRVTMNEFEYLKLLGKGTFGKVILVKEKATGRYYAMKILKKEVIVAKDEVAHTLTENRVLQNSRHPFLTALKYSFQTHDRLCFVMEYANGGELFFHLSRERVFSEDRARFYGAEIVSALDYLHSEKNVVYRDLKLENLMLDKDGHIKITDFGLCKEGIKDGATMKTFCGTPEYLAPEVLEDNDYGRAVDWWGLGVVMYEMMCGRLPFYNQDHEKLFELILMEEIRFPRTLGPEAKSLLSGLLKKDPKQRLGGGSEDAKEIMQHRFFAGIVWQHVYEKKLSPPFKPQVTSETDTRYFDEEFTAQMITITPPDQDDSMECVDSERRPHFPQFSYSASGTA
row,effect of a mutation on the interaction,Variant
1,disrupting interaction,K30A

# From IntAct's records for PubMed 18292230
